Results on 3 molecules are retold here after patent US20250188162A1, “INHIBITOR OF INTERLEUKIN-1 RECEPTOR TYPE 1 FOR USE IN THE TREATMENT OF CANCER” (Buzzard Pharmaceuticals AB, priority 2022, published 2025).

The conditions of series [1]: 133 mg/h for 72 hours; cited from earlier work.
Series [2] has as its system RAW264.7 macrophages. The series is described as follows: MTT reduction of RAW264.7 macrophages treated with Cu-CPT22. Particulars: MTT reduction at 72 hours post-LPS/VCAN. In kind it is cell-based, murine.
The subject of series [3] is NF-κB. The series is described as follows: NF-κB reporter bioluminescence of NGL RAW264.7 macrophages pre-treated with Cu-CPT22 and exposed to VCAN. Format: cell-based, murine. To be noted: 1 nM recombinant VCAN, bioluminescence at 24 hours.
For series [4], the system named is Kras-mutant cancer cells. The series is described as follows: malignant pleural effusion model of κB.luc mice with pleural LLC cells treated with Cu-CPT22. Format: in vivo. Particulars: daily intraperitoneal 20 mg/kg, 14 days post-pleural LLC cells.
Series [5] deals with KrasMUT tumors. The series is described as follows: subcutaneous tumor growth in mice with established tumors treated with Isunakinra. Particulars: daily intraperitoneal 20 or 50 mg/Kg from 10-17 days post tumor cells; FULA1, LLC, MC38 (Kras-mutant) vs B16F10, PANO2 (WT). In kind it is in vivo. On the procedure: (§1) FIG. 6. Pharmacologic abolition of non-oncogene addiction of Kras-mutant tumors to IL-1β. […] (A) FVB (n=10) and C57BL/6 (n=45) mice received subcutaneous injections of 5×10^6 FULA1 (FVB mice) or LLC, MC38, B16F10, or PANO2 (C57BL/6 mice) cells that carry G12C, G13R, Q61R, or wild-type (WT) Kras alleles. Mice were allowed 10-17 days for tumor take, and were treated with daily intraperitoneal phosphate buffered saline (PBS) or 20 mg/Kg (LLC cells) or 50 mg/Kg (all other cells) Isunakinra until control tumor volume reached 1 cm3 (PANO2 cells) or 2 cm3 (all other cell lines). Shown are therapy (Tx) start, mouse numbers (n), tumor volume as mean (circles) and SD (bars), two-way ANOVA probability (P) for treatment effects, and average Isunakinra effect at the last time-points (%). ** and ***: P<0.01 and P<0.001, respectively, Bonferroni post-tests. (B-D) C57BL/6 mice (n=48) received intrapleural 2×10^5 LLC cells stably expressing a κB.LUC reporter (NGL), were allowed five days for tumor take, and received daily intraperitoneal PBS or 20 mg/Kg Isunakinra. Mice were sacrificed when morbid (n=17/treatment) or at day 14 post-LLC cells (n=7/treatment), after 1 mg intravenous D-luciferin and bioluminescence imaging. […]

Series [6] concerns Kras-mutant cancer cells. The series is described as follows: intrapleural LLC κB.LUC reporter malignant pleural effusion model treated with Isunakinra. In kind it is in vivo, mice. To be noted: daily intraperitoneal 20 mg/Kg from day 5 post-intrapleural LLC cells. On the procedure:
as §1

Take “IL-1RA: IL-1 receptor antagonist protein, natural antagonist of IL-1α and IL-1β”: in series [1], the “clinical or laboratory values” was “no change in clinical or laboratory values”.
As to `CCCCCCOC(=O)c1cc(O)c(=O)c2c(O)c(O)c(OC)cc2c1` [Cu-CPT22, 3,4,6-Trihydroxy-2-methoxy-5-oxo-5H-benzocycloheptene-8-carboxylic acid hexyl ester], the “concentration range inhibiting cellular survival” value in series [2] is “low micromolar range”. In addition, the “concentration range inhibiting VCAN induced NF-κB activation” value in series [3] was “low micromolar range”. Also, in series [4], the “VCAN-induced myeloid NF-κB activation and MPE” value was “blocks versican (VCAN)-induced myeloid NF-κB activation and MPE of Kras-mutant cancer cells in vivo”; the “tumor growth in vivo” value was “blocked tumor growth in vivo at clinically relevant concentrations”.

B1: Isunakinra: protein chimera of IL-1β and IL-1 receptor antagonists comprising P05 (SEQ ID NO: 5); binds IL1R1 (protein)
chain: APVRSLNCRIWDVNQKTFYLRNNQLVAGYLQGPNVNLEEKFSMSFVQGEESNDKIPVALGLKEKNLYLSCVLKDDKPTLQLESVDPKNYPKKKMEKRFVFNKIEINNKLEFESAQFPNWFLCTAMEADQPVSLTNMPDEGVMVTKFYMQFVSS
modifications: P05
Consider B1, for which, in series [5], the “s.c. tumor growth (tumor volume)” value is “specifically inhibited s.c. growth of KrasMUT tumors”. Besides, in series [6], the “NF-κB activation in KrasMUT cancer cells in vivo (chest bioluminescence)” value was “limited nuclear factor (NF)-κB activation in KrasMUT cancer cells in vivo”; the “malignant pleural effusions (MPE)” value was “limits nuclear factor (NF)-κB activation and malignant pleural effusions (MPE) from Kras-mutant cancer cells”.
